Data reported in publication PMC9973331, “DNA Methylation and RNA-DNA Hybrids Regulate the Single-Molecule Localization of a DNA Methyltransferase on the Bacterial Nucleoid”.
Numbering of substitutions follows the chain as printed.

How the values were obtained:
DnmA[Y465A] = target: T1, DnmA[Y465A] (Bacillus subtilis, UniProt O31504 1-879, Y465A); assay: EMSA; EMSA: 5x buffer 500 mM Tris-HCl pH 8, 1.25 M NaCl, 10% glycerol (1x: 100 mM Tris, 250 mM NaCl, 2% glycerol), 5 nM probe, 30 min at 25 C; 6% native PAGE in 1x TBE on ice; conditions: protein: recombinant; tags: His-SUMO tag (pE-SUMO) removed by SUMO protease; label: 5' IRDye700 on strand 1; 5' IRDye800 on strand 2; blunt
T1 sequence: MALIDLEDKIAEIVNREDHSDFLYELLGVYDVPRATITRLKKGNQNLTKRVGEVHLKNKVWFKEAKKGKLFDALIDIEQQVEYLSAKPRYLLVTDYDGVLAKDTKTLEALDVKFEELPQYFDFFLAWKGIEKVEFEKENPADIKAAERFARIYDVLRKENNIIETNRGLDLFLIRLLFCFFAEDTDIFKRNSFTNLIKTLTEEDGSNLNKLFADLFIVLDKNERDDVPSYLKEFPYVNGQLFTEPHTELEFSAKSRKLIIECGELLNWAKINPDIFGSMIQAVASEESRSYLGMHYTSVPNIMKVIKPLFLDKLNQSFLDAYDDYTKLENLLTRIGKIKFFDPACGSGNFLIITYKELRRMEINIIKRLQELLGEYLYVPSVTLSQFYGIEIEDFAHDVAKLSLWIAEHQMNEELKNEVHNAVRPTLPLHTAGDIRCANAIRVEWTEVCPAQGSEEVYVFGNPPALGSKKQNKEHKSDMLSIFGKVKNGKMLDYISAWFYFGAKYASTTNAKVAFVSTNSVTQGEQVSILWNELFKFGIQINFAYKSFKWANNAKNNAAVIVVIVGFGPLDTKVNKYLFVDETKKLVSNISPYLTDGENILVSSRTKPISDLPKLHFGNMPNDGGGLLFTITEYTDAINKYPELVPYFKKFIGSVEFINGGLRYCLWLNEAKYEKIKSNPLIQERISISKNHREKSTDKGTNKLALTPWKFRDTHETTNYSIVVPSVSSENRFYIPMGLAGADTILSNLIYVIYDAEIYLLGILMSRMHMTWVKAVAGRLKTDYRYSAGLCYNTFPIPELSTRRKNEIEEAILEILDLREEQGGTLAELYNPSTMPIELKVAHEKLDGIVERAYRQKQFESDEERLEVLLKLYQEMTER

DnmA[6AA*] = target: T2, DnmA[6AA*] (Bacillus subtilis, UniProt O31504 1-879, K470A;M620A;N748A;L780A;K781A;D783A); assay: as above; conditions: protein: recombinant; tags: His-SUMO tag (pE-SUMO) removed by SUMO protease; label: 5' IRDye700 on strand 1; 5' IRDye800 on strand 2; blunt
T2 sequence: T1 sequence with A465Y, K470A, M620A, N748A, L780A, K781A, D783A

B1: unmethylated dsDNA (oTMN67/oTMN68) (dsDNA)
DNA 1: CAAAACAGGATATGAAATAGTATTGGACGAGAGCTTTTTGGTGGCTTATACTATAG
DNA 2: CTATAGTATAAGCCACCAAAAAGCTCTCGTCCAATACTATTTCATATCCTGTTTTG
**Q.** Which results are given for B1?
**A.** apparent K (half saturation) (DnmA[Y465A]): 164 ± 26.8 nM; apparent K (half saturation) (DnmA[6AA*]): 458 ± 185 nM
